The data set concerns the molecule itself. The experiment in a line: crystal structure.

From article PMC8805214, “Crystal structure of betaine aldehyde dehydrogenase from Burkholderia pseudomallei” (Acta Crystallographica. Section F, Structural Biology …, 2022) come the findings set out here.

B1: betaine aldehyde dehydrogenase from Burkholderia pseudomallei (enzyme)
chain: MSVYGLQRLYIAGAHADATSGKTFDTFDPATGELLARVQQASADDVDRAVASAREGQREWAAMTAMQRSRILRRAVELLRERNDALAELEMRDTGKPIAETRAVDIVTGADVIEYYAGLATAIEGLQVPLRPESFVYTRREPLGVCAGIGAWNYPIQIACWKSAPALAAGNAMIFKPSEVTPLSALKLAEIYTEAGVPAGVFNVVQGDGSVGALLSAHPGIAKVSFTGGVETGKKVMSLAGASSLKEVTMELGGKSPLIVFDDADLDRAADIAVTANFFSAGQVCTNGTRVFVQQAVKDAFVERVLARVARIRVGKPSDSDTNFGPLASAAQLDKVLGYIDSGKAEGAKLLAGGARLVNDHFASGQYVAPTVFGDCRDDMRIVREEIFGPVMSILSFETEDEAIARANATDYGLAAGVVTENLSRAHRAIHRLEAGICWINTWGESPAEMPVGGYKQSGVGRENGITTLEHYTRIKSVQVELGRYQPVF
notes: also called BpBADH; BpBADH-His; not shown: His6, C-terminal, kept
B1: the binding result is “binds”.
